According to the supplement of paper PMC9876800:

System: peptide library, one residue held at a place counted from the S/T acceptor
Assay: relative phosphorylation of the sub-library (ratio to the mean residue at this position); human; higher = residue favoured
In short: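 Relative sub-library phosphorylation is the ratio of each sub-library's signal to the mean residue at that position. The signal came from phosphorimaging of spots on streptavidin membranes, quantified by densitometry, after purified recombinant kinases reacted with biotinylated degenerate peptide sub-libraries in 384-well plates. Reactions held 50 μM peptide and 50 μM ATP spiked with γ-32P-ATP for 90 min under kinase-specific conditions.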

Sequence of RPS6KA6, construct: Full length (Q9UK32 whole entry, looked up): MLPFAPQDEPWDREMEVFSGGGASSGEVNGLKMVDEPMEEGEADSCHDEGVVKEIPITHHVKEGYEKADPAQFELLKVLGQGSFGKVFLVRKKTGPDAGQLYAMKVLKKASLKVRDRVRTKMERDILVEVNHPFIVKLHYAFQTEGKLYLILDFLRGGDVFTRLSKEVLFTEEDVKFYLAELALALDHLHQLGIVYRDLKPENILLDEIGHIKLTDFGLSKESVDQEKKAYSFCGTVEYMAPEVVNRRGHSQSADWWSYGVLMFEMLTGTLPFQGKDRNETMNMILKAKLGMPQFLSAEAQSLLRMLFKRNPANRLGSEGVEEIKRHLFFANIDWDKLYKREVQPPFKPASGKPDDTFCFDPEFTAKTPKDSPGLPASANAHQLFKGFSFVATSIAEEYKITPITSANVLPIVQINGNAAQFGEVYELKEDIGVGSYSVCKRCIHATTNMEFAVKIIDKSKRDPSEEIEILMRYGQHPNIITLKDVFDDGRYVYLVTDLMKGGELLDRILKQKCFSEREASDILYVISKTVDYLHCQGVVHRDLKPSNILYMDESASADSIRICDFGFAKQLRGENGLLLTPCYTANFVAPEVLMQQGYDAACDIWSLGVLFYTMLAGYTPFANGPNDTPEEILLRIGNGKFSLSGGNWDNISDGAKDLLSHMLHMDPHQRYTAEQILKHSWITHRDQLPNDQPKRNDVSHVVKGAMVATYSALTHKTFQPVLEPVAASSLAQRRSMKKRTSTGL
Sequence of RIPK1, construct: aa1-327 (Q13546 1-327, looked up): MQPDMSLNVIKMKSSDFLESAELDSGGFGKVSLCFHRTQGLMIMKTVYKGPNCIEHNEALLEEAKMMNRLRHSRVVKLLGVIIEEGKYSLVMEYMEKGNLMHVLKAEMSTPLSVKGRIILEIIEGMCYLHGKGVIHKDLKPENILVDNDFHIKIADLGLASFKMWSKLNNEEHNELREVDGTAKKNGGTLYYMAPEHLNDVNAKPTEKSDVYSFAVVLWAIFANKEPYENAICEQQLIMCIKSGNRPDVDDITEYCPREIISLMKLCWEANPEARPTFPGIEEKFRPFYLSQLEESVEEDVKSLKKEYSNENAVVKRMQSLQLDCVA
Sequence of SGK3, construct: aa119-end (Q96BR1 119-496, looked up): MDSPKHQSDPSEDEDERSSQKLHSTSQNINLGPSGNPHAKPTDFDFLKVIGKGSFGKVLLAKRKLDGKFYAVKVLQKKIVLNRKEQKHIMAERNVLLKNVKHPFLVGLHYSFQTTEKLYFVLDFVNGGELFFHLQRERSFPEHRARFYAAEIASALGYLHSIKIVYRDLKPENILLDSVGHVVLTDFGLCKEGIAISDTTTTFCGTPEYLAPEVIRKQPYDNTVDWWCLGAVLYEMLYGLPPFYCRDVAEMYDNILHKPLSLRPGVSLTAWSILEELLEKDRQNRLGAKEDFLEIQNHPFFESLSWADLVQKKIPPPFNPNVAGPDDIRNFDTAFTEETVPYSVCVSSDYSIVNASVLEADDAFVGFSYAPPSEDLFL

RIPK1, construct: aa1-327 (from UniProt Q13546)
relative phosphorylation
Conditions	at +1	at +2	at +3	at +4	at -1	at -2	at -3	at -4	at -5
A fixed	0.709	0.619	0.572	0.819	0.574	1.01	0.92	1.03	0.84
D fixed	0.248	0.612	0.489	0.846	0.592	0.374	0.536	0.614	0.642
E fixed	0.331	0.927	0.398	0.81	0.313	0.37	0.551	0.685	0.68
F fixed	1.91	1.28	2	0.939	0.793	0.734	0.896	1.04	1.09
G fixed	0.79	0.817	0.707	1.28	0.747	1.21	1.29	1.27	1.18
H fixed	0.809	1.29	1.04	1.07	1.52	1.18	0.977	0.908	1.12
I fixed	1.1	1.28	1.19	1.27	1.12	1.07	0.944	1.04	1.28
K fixed	1.33	0.639	0.517	0.762	1.83	1.3	1.27	1.06	1.1
L fixed	0.829	1.21	1.09	0.947	1.01	1.19	0.986	0.935	1.14
M fixed	1.38	1.34	1.34	1.11	1.18	1.04	1.08	1.13	1.2
N fixed	0.583	0.801	0.726	0.839	1.3	0.975	0.829	0.76	0.797
P fixed	0.198	0.568	0.355	1.14	0.453	1.11	0.927	1.02	0.833
Q fixed	1.19	0.891	0.703	0.787	0.85	0.796	0.743	0.689	0.667
R fixed	2.48	1.02	1.13	0.945	1.97	1.94	2.35	1.4	1.32
V fixed	0.96	1.03	0.917	1.04	1.03	1.26	0.845	1.22	1.16
W fixed	1.01	1.03	1.88	1.22	0.675	0.763	1.02	1.29	0.987
Y fixed	1.15	1.66	1.94	1.18	1.04	0.682	0.84	0.912	0.972
pThr fixed	0.704	0.999	0.696	1.06	0.761	1.34	1.15	1.08	0.87
pTyr fixed	0.391	0.788	0.54	0.968	0.683	0.719	1.19	0.795	0.72

RPS6KA6, construct: Full length (from UniProt Q9UK32)
relative phosphorylation
Conditions	at +1	at +2	at +3	at +4	at -1	at -2	at -3	at -4	at -5
A fixed	0.637	0.911	0.754	0.964	0.769	0.556	0.382	0.988	0.874
D fixed	0.481	1.09	1.24	1.3	0.622	0.544	0.444	0.785	0.613
E fixed	1.44	0.799	1.65	1.36	0.635	0.549	0.417	0.96	0.608
F fixed	1.16	0.623	0.837	0.671	0.525	0.463	0.251	0.582	0.7
G fixed	0.574	0.967	1.23	1.37	1.1	0.812	0.527	1.13	0.932
H fixed	0.943	2.06	1.29	1.12	0.934	1.04	0.564	0.915	1
I fixed	1.49	0.54	0.708	0.609	0.262	0.364	0.205	0.479	0.433
K fixed	1.14	0.761	1.12	1.03	2.1	2.65	1.75	1.95	2.56
L fixed	1.1	0.498	0.815	0.648	0.657	1.01	0.245	0.563	0.539
M fixed	1.08	0.594	0.717	0.82	0.863	0.522	0.314	0.8	0.545
N fixed	0.986	1.13	1.1	1.04	1.49	0.675	0.541	0.822	0.687
P fixed	0.407	0.498	0.699	1.66	2.81	0.914	1.11	1.49	0.755
Q fixed	1.17	0.724	1.08	1.04	1	0.644	0.548	0.917	0.657
R fixed	0.949	1.31	1.01	0.906	1.53	5.3	8.88	2.69	4.15
V fixed	1.78	0.575	0.696	0.625	0.36	0.265	0.208	0.568	0.538
W fixed	0.716	1.58	0.975	1.03	0.468	0.27	0.286	0.681	0.705
Y fixed	0.948	2.34	1.07	0.81	0.872	0.424	0.325	0.676	0.697
pThr fixed	2.29	1.05	1.56	2.31	0.471	0.51	0.399	0.692	0.543
pTyr fixed	1.69	1.18	1.86	1.37	0.705	0.517	0.442	0.645	0.647

SGK3, construct: aa119-end (from UniProt Q96BR1)
relative phosphorylation
Conditions	at +1	at +2	at +3	at +4	at -1	at -2	at -3	at -4	at -5
A fixed	0.678	1.24	1.05	1.13	1.04	1.27	0.733	1.07	1.07
D fixed	0.294	0.423	0.901	0.91	0.498	0.2	0.186	0.53	0.497
E fixed	0.369	0.236	1.05	0.892	0.462	0.194	0.21	0.661	0.509
F fixed	2.98	0.836	1.09	0.843	0.672	0.609	0.352	0.749	0.836
G fixed	0.575	0.701	1.21	1.24	1.77	0.992	0.663	1.23	1.18
H fixed	0.707	1.32	1.05	1.13	1.1	1.2	1.74	1.05	1.05
I fixed	1.71	1.18	0.918	0.896	0.455	0.33	0.305	0.778	0.641
K fixed	0.807	0.987	0.995	1.08	1.71	3.22	2.08	1.73	1.94
L fixed	1.29	1.59	1.06	0.823	0.799	0.412	0.307	0.809	0.72
M fixed	1.88	1.14	1.04	0.92	1.02	0.394	0.349	0.875	0.708
N fixed	0.635	1.02	0.927	0.904	1.08	0.7	0.454	0.753	0.773
P fixed	0.361	0.56	0.835	1.39	1.06	0.558	0.688	1.09	0.991
Q fixed	0.812	0.625	0.996	0.983	0.804	0.676	0.613	0.988	0.752
R fixed	0.935	2.32	1.03	0.99	2.23	4.89	6.97	2.32	2.79
V fixed	1.5	1.05	1.04	0.894	0.614	0.417	0.404	0.953	0.955
W fixed	0.596	0.761	0.849	1.08	0.633	0.437	0.409	0.672	0.753
Y fixed	0.857	1.01	0.955	0.903	1.07	0.497	0.545	0.731	0.831
pThr fixed	0.681	0.529	0.661	0.81	0.359	0.512	0.367	0.743	0.567
pTyr fixed	0.778	0.681	0.97	0.875	0.801	0.44	0.552	0.76	0.791
